Entries after “also recorded” stand apart in the source; their conditions may differ.

Assay [1] relates to IL-8. The assay can be described thus: IL-8 expression in NHBE cells (RT-PCR and ELISA). It counts as cell-based, human. The following applies: 100 ng/ml. The text has this: FIGS. 3A-3C. FIG. 3A, Expression of ML-1 protein in COS-7 cells. COS-7 cells were transfected with a gene construct containing full-length ML-1 sequence and a tag sequence encoding poly (His) peptide. ML-1-His fusion proteins were purified from supernatants of the transfected cells using a His affinity column, run on an 8-16% SDS-polyacrylamide gel under reducing conditions, and analyzed by Western Blot using anti-His monoclonal antibody. Lane 1 represents a mock-transfected sample. Lane 2 represents an ML-1-transfected sample. The location of a 19.5 kd marker is indicated. FIG. 3B, Effect of ML-1 on IL-8 gene expression. Human primary bronchial epithelial cells (NHBE cells) were treated with different stimuli. The cells were harvested 4 hours after stimulation, and total RNA was extracted and subjected to RT-PCR using IL-8 and G3PDH primers. Lane 1, medium only; lane 2, cells treated with rIL-17 (100 ng/ml); lane 3, cells treated with purified His-tagged protein (Positope, 100 ng/ml); lane 4, cells treated with ML-1 (100 ng/ml). FIG. 3C, Effect of ML-1 on IL-8 protein production. NHBE cells were treated with the same stimuli used in FIG. 3B, and the supernatants were harvested 48 hours after stimulation.
Primary human bronchial epithelial (NHBE) cells were purchased from Clonetics (San Diego, Calif.) and cultured according to the manufacturer's instructions. The cells were treated with IL-17 (100 ng/ml), ML-1 (100 ng/ml), or a control His-tagged protein (Positope, 100 ng/ml; Invitrogen, Carlsbad, Calif.). The affinity-purified control His protein was dissolved in the same buffer as ML-1. Total RNA was extracted using Rneasy (Qiagen, Chatsworth, Calif.) from 1×10^6 cells 4 hours after stimulation or exchange of media. The protocol for cDNA synthesis was that described above. For PCR, the sequences of PCR primers were based on the human IL-8 cDNA sequence. The sequences of PCR primers for IL-8 were: forward, 5′-TCTGCAGCTCTGTGTGAAG-3′ (SEQ ID NO:14) and reverse, 5′-TAATTTCTGTGTTGGCGCA-3′ (SEQ ID NO:15). The amplification reaction was performed for 23 cycles with denaturation at 94° C. for 45 seconds, annealing at 56° C. for 45 seconds, and extension at 72° C. for 45 seconds PCR products were detected by ethidium bromide staining. The expected size for IL-8 was 154 basepairs. IL-8 protein levels in the collected supernatants were determined with a commercially available ELISA kit (Biosource, Camarillo, Calif.) according to the manufacturer's instructions.

The test system of assay [2] is IL-6. Description: IL-6 expression in PBECs (ELISA, RT-PCR). The format is cell-based, human. The following applies: ML-1 10 and 100 ng/ml, 24 and 48 hours, ELISA. The procedure: FIG. 5. Analysis of IL-6 (FIG. 5A) and IL-8 (FIG. 5B) expression in primary bronchial epithelial cells (PBECs) and human umbilical vein endothelial cells (HUVECs) stimulated by ML-1. The IL-6 and IL-8 protein release in the supernatant was determined by ELISA as described in Example 8. The results were expressed as mean+SD (n=6). *p<0.05 was considered significant vs control.
FIG. 7A-7D. Effect of PD98059 on IL-6 (FIG. 7A) and IL-8 (FIG. 7B) protein production in PBECs and HUVECs. The cells were preincubated with varying concentrations of PD98059, SB202190, or DMSO vehicle control for 1 hour, followed by stimulation with ML-1 (100 ng/ml) for 24 hours. The results are expressed as the mean+SD (n=6). *P<0.05 when compared to cultures without the addition of PD98059. FIGS. 7C and 7D. Semi-quantitative analysis of gene expression for IL-6 (FIG. 7C) and IL-8 (FIG. 7D) by RT-PCR. The cells were preincubated as described above and treated with ML-1 for 4 hours. RT-PCR was performed as described in Example 8. The results shown are representative of three separate experiments.
Primary bronchial epithelial cells (PBECs) were purchased from Clonetics (San Diego, Calif.) and cultured in bronchial epithelial basal medium (Clonetics) containing 0.5 ng/ml human recombinant epidermal growth factor (EGF), 52 mg/ml bovine pituitary extract, 0.1 mg/ml retinoic acid, 0.5 mg/ml hydrocortisone, 5 mg/ml insulin, 10 mg/ml transferrin, 0.5 mg/ml epinephrine, 6.5 ng/ml triiodothyronine, […] gentamicin, and 50 pg/ml amphotericin-B (Clonetics). […]
The amplification reaction was performed for 23 cycles with denaturation at 94° C. for 45 seconds, annealing at 56° C. for 45 seconds, and extension at 72° C. for 45 seconds. PCR products were detected by ethidium bromide staining and normalized by the intensity of an amplified housekeeping gene, G3PDH (see above). […] IL-6 and IL-8 protein levels in the collected supernatants were determined with a commercially available ELISA kit (Biosource, Camarillo, Calif.) according to the manufacturer's instructions.

B1: ML-1: new member of the IL-17 cytokine family, SEQ ID NO:2; His-tagged recombinant protein expressed in COS-7 cells and affinity purified (protein, listed as Homo sapiens)
chain: MKLDIGIINENQRVSMSRNIESRSTSPWNYTVTWDPNRYPSEVVQAQCRNLGCINAQGKEDISMNSVPIQQETLVVRRKHQGCSVSFQLEKVLVTVGCTCVTPVIHHVQ
modifications: His tag
As to B1, the IL-8 protein expression entry in assay [1] (ELISA of supernatants, 48 hours) is given as “enhanced”. Further, the IL-8 transcript expression entry in assay [1] (RT-PCR) was “enhanced”. For the same molecule, the IL-6 production entry in assay [2] is listed as “time-dependent increase; also recorded: significantly induced”.

Values taken from patent US20060073572A1, “Cytokine structurally related to IL-17” (The Johns Hopkins University, priority 2001, published 2006).
